Positions of bridges follow the written chain, without caps; N, C: chain ends. No end group written: not given here.
Target: T1, recombinant human tissue-type plasminogen activator (tPA) (human, UniProt P00750 36-562)
T1 construct: Immobilized on ReactiGel agarose beads for the phage work; Used in solution for the column tests
Experiment: peptide bound to a chromatographic support

T1 sequence (P00750 36-562 limits assumed): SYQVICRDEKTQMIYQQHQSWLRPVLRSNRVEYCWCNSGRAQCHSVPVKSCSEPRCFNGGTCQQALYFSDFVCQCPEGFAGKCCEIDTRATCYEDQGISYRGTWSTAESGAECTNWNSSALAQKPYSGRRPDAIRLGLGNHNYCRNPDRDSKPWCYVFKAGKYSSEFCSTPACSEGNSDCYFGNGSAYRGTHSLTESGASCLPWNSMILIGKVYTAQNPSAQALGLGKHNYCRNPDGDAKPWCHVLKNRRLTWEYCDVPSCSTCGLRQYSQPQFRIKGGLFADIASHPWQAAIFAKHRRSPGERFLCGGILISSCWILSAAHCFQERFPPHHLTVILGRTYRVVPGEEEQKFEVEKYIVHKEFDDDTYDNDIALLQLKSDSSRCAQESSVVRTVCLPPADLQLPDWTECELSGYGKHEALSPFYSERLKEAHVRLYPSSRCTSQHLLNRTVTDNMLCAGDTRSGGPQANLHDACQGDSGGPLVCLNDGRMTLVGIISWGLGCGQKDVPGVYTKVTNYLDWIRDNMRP

- binding result: binds
B1: 15-amino acid segment derived from affinity ligand isolate #109 (peptide)
peptide: RLCPKTDLGCMKDSD
modifications: disulfide 3-10; also: bound to a chromatographic support
notes: also called truncated 15-amino acid segment of the isolate #109; C3-C10 loop

— US20030162942A1 (DYAX, published 2003)
